“Also recorded” adds a separate entry of the source. Marks after values point to notes of the source that are not given here.
Tests used:
HLA-E [1] = biological target: T1, HLA-E (Homo sapiens, UniProt P13747); assay: Peptide competition with B7sp in cytotoxic assay on K562-E*01033 cells; format: cell-based; conditions: 0.1 μM B7sp together with increasing concentrations of competing peptide; effector Nishi
T1 construct: HLA-E*0101 and HLA-E*01033 cDNA encoding plasmids (pcDNA3) were provided by Drs; M. Ullbrecht and E. Weiss; expressed in transfected cells; host or cells: K562
Method: (§1) K562-E*01033 cells were incubated with the different peptides at 26° C. for 15-20 hours, and then tested in 2 h 51Cr release assays. In order to ensure that the levels of HLA-E with a protective peptide, and not the HLA-E levels as such, provided the protective capacity we kept the non-protective peptides, but omitted the B7sp, during the assays. (a) Killing of K562-E*01033 cells by NKL (left) or Nishi (right) after incubation with […], 300 mM hsp60sp, or 30 mM B7sp. 50 mM of P18I10 control peptide and hsp60sp was also included during the assays. Data from an E:T ratio of 30:1 is shown. The figure represents the mean of at least three experiments. Error bars indicate standard error of the mean. (b) Killing of K562-E*01033 cells by NKL (left panel) or Nishi (right panel) incubated over night with 30 mM 7sp, 300 mM P18I10 (pCtrl), 300 mM B7 R5V, 300 mM hsp60sp, or 300 mM hsp60 V5R. 50 mM of all peptides, except B7sp, were included during the assay. Peptide concentrations were chosen according to FIG. 5c. The figure represents the mean of at least three experiments. Error bars indicate standard error of the mean. (c) HLA-E cell surface expression by K562-E*01033 after the assay. A cold target preparation was prepared in parallel as in (a) and (b), and then stained with DX17 mAb (anti-HLA class I), followed by RPE-conjugated goat-anti-mouse IgG. One representative example out of more than 5 is shown. Note that, as in (a) and (b), 50 mM of all peptides, except for B7sp, was present during the time of the assay, explaining the lower HLA-E expression with B7sp compared to Hsp60sp, Hsp60 V5R and B7 R5V. (d) Killing of K562-E*01033 cells by Nishi after incubation for 30 min at room temperature with 0.1 mM B7sp and increasing amounts of competing peptides (hsp60sp, hsp60.4, B7 R5V and P18I10). All the peptides were kept throughout the assay
Briefly, K562-E*01033 cells were incubated with 0.1 μM B7sp together with increasing concentrations of competing peptides and tested in cytotoxic assays.

[2] = system: CD94/NKG2A+ NK cell lines Nishi and NKL; assay: NK cell-mediated cytotoxicity, 2 h 51Cr release, peptide-loaded K562-E*01033 targets; format: cell-based, human; conditions: targets incubated overnight at 26° C. with peptide; effectors NKL and Nishi
Method: as §1
NK cell-mediated cytotoxicity was measured using a 2 hours standard ^51Cr radioisotope release assay. Briefly, target cells were incubated for 15-20 hours at 26° C. with the various peptides at concentrations ranging from 1-300 μM, and then labeled with ^51Cr. Peptides were washed away prior to setting up the assays, except in some experiments where the non-protective hsp60sp, B7 R5V and hsp60 V5R was kept throughout the assay to assure higher levels of HLA-E expression, as compared to targets incubated with the protective B7sp. In mAb blocking experiments, cells were preincubated with mouse serum, or an irrelevant isotype matched antibody to block Fc-receptors. Blocking of either target or effector cells with mAbs was performed at 4° C., and the antibodies were also included during the assays. […]

HLA-E [3] = assay: HLA-E stabilization assay (cell surface expression by flow cytometry); format: cell-based, human; conditions: overnight incubation with peptide at 26° C.
Method: Synthetic peptides, purchased from Research Genetics, were dissolved in PBS. The peptides used were B7sp ([…]) (SEC ID NO: 3), hsp60sp ([…]) (SEC ID NO: 2), B7 R5V ([…]) (SEC ID NO: 14), hsp60 V5R ([…]) ([…]), and P18I10 ([…]) (SEC ID NO: 113) (all from Research Genetics, Huntsville, Ala.). Cells and their HLA-E transfected derivatives were incubated with synthetic peptides (3-300 μM) at 26° C. for 15-20 hours in serum-free AIM-V medium (GibcoBRL, Paisley Scotland) at a concentration of 1-3.10^6 cells/ml. Cells were then harvested, washed in PBS, stained with mAbs and analyzed by flow cytometry. Cells were subjected to stress by allowing them to grow at increasing cell density.
To test whether the hsp60-derived peptides were able to bind HLA-E, stabilized HLA-E cell surface expression was stabilized with the different synthetic peptides, by overnight incubation at 26° C. For this purpose MHC class I-deficient cell lines such as 721.221 (which lack HLA-A, -B, -C, and -G, but express HLA-E and -F intracellularly), as well as K562 cells transfected with HLA-E*01033 (K562-E*01033) or HLA-E*0101 were employed. The 721.221 cells and HLA-E transfected, but not untransfected, K562 cells express low levels of HLA-E at the cell surface during normal cell growth.

HLA-E [4] = assay: as above; format: cell-based, human; conditions: at 37° C.
CD94/NKG2A+ NK cells = conditions: peptide presented by Qa-1^b; cited from earlier work
Qa-1^b = biological target: T2, Qa-1^b (Mus musculus, UniProt P06339); conditions: cited from earlier work
T2 sequence (P06339 21-357): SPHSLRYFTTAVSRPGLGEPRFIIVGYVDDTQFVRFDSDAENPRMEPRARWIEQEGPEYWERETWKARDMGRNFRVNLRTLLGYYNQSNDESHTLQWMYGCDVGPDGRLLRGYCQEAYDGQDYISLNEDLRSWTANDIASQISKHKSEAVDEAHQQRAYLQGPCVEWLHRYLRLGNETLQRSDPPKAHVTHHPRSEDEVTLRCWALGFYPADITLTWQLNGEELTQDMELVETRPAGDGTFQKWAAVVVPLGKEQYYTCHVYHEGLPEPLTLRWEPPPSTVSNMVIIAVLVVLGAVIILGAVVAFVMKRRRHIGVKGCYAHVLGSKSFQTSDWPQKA
T2 sequence (P01887 21-119 partner): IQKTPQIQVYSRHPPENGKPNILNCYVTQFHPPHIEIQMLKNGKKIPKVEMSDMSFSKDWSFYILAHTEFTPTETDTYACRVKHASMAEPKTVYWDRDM

[5] = mice; cited from earlier work
[6] = biological target: T3, HLA-E on cells, allele not told (human, UniProt P13747 22-358; P61769 21-119); assay: HLA-E surface stabilisation on transfected K562 and 721.221 cells, flow cytometry
T3 construct: whole, on cells
Method: (§2) Synthetic peptides, purchased from Research Genetics, were dissolved in PBS. […] Cells and their HLA-E transfected derivatives were incubated with synthetic peptides (3-300 μM) at 26° C. for 15-20 hours in serum-free AIM-V medium (GibcoBRL, Paisley Scotland) at a concentration of 1-3.10⁶ cells/ml. Cells were then harvested, washed in PBS, stained with mAbs and analyzed by flow cytometry. Cells were subjected to stress by allowing them to grow at increasing cell density.

[7] = biological target: T3, HLA-E on cells, allele not told; assay: HLA-E surface stabilisation with synthetic peptide overnight at 26 C, flow cytometry
Method: as §2

[8] = biological target: T3, HLA-E on cells, allele not told; assay: summary of the examples
[9] = biological target: T4, HLA-E*01033 on transfected K562 cells (K562-E*01033) (human); assay: HLA-E surface stabilisation on transfected K562 cells, synthetic peptide overnight at 26 C, flow cytometry
T4 construct: whole, on cells; MHC class I molecule that takes up added peptide in the 26 C stabilisation assay
Method: as §2

[10] = biological target: T4, HLA-E*01033 on transfected K562 cells …; assay: HLA-E surface expression on K562-E*01033 cells after the cytotoxic assay, DX17 staining, flow cytometry
[11] = biological target: T4, HLA-E*01033 on transfected K562 cells …; assay: HLA-E surface stabilisation on K562-E*01033 cells, DX17 staining, flow cytometry
Method: as §2

[12] = K562 cells transfected with HLA-E*01033 or HLA-E*0101

With “VMAPVTVLL [B7 R5V, B7sp with arginine to valine at position 5]” the “competition with B7sp (loss of HLA-E mediated protection from killing)” value (HLA-E [1]) was “even stronger competitor than hsp60sp”, the “protection of K562-E*01033 cells from killing by NK cells” value (from here on “protection of K562-E*01033 cells”) [2] was “efficiently killed by CD94/NKG2A^+ NK cells” and the “HLA-E cell surface expression (stabilization)” value (shortened to “HLA-E cell surface expression”) (HLA-E [3]; [12]) was “expressed high levels of HLA-E”.

In the case of QMRPVSRVL [hsp60sp], the “competition with B7sp (loss of HLA-E mediated protection from killing)” value (HLA-E [1]) is reported as “could interfere with HLA-E mediated protection by competing with MHC class I signal peptides; also recorded: became more susceptible to killing with increasing concentrations of hsp60sp”, the “dissociation of HLA-E/peptide complexes” value (HLA-E [4]) is reported as “dissociated faster than the HLA-E/B7sp” and the “protection of K562-E*01033 cells” value [2] is reported as “did not result in any significant protection; also recorded: fails to protect K562-E*01033 cells from killing by NK cells”. The “HLA-E cell surface expression” value (HLA-E [3]; [12]) was “substantial increase in HLA-E expression; also recorded: stabilization of HLA-E”.

In the case of “VMLAVDAVI [hsp60.3, human hsp60 residues 144-152]”, the “HLA-E cell surface expression” value (HLA-E [3]; [12]) is reported as “HLA-E stabilization was not observed”.

In the case of “QMRPRSRVL [hsp60 V5R, hsp60sp with valine to arginine at position 5]”, the “protection of K562-E*01033 cells” value [2] is reported as “not sufficient to restore protection from killing”.

In the case of “GMKFDRGYI [hsp60.4, human hsp60 residues 216-224]”, the “competition with B7sp (loss of HLA-E mediated protection from killing)” value (HLA-E [1]) is given as “not able to compete with B7sp; also recorded: could not compete with the B7sp for binding to HLA-E”, the “protection from CD94/NKG2A+ NK cells” value (CD94/NKG2A+ NK cells) is given as “did not induce protection from CD94/NKG2A^+ NK cells; also recorded: fail to protect the cells from NK cell mediated lysis” and the “binding to Qa-1^b” value (Qa-1^b) is given as “bind to mouse Qa-1^b molecules; also recorded: could bind to Qa-1^b; also recorded: binds to Qa-1^b”. The “competition with Qdm-peptide for binding to Qa-1^b” value (Qa-1^b; even when mixed in 100,000-fold excess with 1 mM Qdm) was “failed to compete with the protective Qdm-peptide for binding to Qa-1^b; also recorded: nor could it reportedly compete for binding to Qa-1^b”, the “HLA-E cell surface expression” value (HLA-E [3]; 721.221 cells) was “capable of stabilizing HLA-E molecules” and the “HLA-E cell surface expression” value (HLA-E [3]; [12]) was “capable of stabilizing HLA-E molecules; also recorded: can bind to HLA-E”.

For AMAPRTLLL [qdm, reference compound], the “binding to Qa-1^b” value (Qa-1^b) is listed as “known to form relatively stable Qa-1b/peptide complex”.

In the case of `CN(C(=O)c1c(O)c2ccccc2n(C)c1=O)c1ccccc1` [linomide], the “protection from developing EAE” value [5] is given as “can protect mice from developing disease”.

With RGPGRAFVTI [P18I10, reference compound] the “competition with B7sp (loss of HLA-E mediated protection from killing)” value (HLA-E [1]) was “remained protected from killing at all concentrations tested”.

In the case of “L MLQGVDLL (N-terminal Leu) [hsp60.2, human hsp60 residues 39-47]”, the “HLA-E cell surface expression” value (HLA-E [3]; [12]) is reported as “HLA-E stabilization was not observed”.

B1: hsp60.4 peptide (GMKFDRGYI) (peptide)
peptide: GMKFDRGYI
B1: binds [6].

B2: hsp60.3 peptide (VMLAVDAVI) (peptide)
peptide: VMLAVDAVI
B2: no binding [7].

B3: hsp60sp (QMRPVSRVL), nonamer from the signal sequence of human hsp60 (peptide)
peptide: QMRPVSRVL
notes: Synthetic peptide (Research Genetics); also called hsp60 signal peptide; hsp60 leader peptide
B3: binds [8]; binds [9].

B4: hsp60 V5R (QMRPRSRVL) (peptide)
peptide: QMRPRSRVL
B4: binds [10].

B5: hsp60.2 peptide (LMLQGVDLL) (peptide)
peptide: LMLQGVDLL
B5: no binding [7].

B6: B7sp (VMAPRTVLL), peptide from the leader sequence of HLA-B*0701 (peptide)
peptide: VMAPRTVLL
notes: also called B7 signal peptide
B6: binds [9].

B7: B7 R5V (VMAPVTVLL) (peptide)
peptide: VMAPVTVLL
B7: binds [11].

From US20070081991A1, “Compositions and methods for modulation of immune responses” (Pepgen Corporation, priority 2001, published 2007)
